B1: Allomuricauda taeanensis (Ata) sigma factor E RpoE with N-terminal 3xFLAG tag (other)
chain: MLYSDFELLKIGDTSALDHIHAKYFRSILWIGRQWLNDDFLIESLVQDTFLKLWVNRDKLESPEHIFYFLRFVMKRECISYYRKPKYKFHKKVNSLEDYDNYQDYMVGYDPVNDSENLDEQESTQKSFDHIKSILPLLNADKRHLIELCLKYGFQYKAISKVMGKGIHETSREIKEAIEDIKTIVHKGNELGSNDTMTNEIKFSGELSEEQAKVLKMRCDLKYSFSEIAKELELSEKEVHQEFMKAYKLMKANHQLQLQSA
notes: Expressed in E. coli together with dCas12f, HTH and gRNA; also called FLAG-RpoE; Ata RpoE; not shown: N-terminal 3xFLAG tag
B2: Allomuricauda taeanensis (Ata) rpoE-associated nuclease-dead Cas12f (other)
chain: MGKSTLKHTRKIQILIDLPTKDEKKEVMDMMYQWRDRCFRAANIIVTHLYVQEMIKDFFYLSEGIKYKLADEKKDEKGILQRSRMNTTYRVVSDRFKGEMPTNILSTLNHGLISSFNKNRVQYWKGERSLPNFKKDMAFPFGLQGISRLVYDEEKKAFCFRLYRVPFKTYLGKDFTDKRMLLERLVKGDVKLCASNIQLNGGKIFWLAVFEIEKEKHSLKPEVIAEASLSLEYPIVVKTGKNRLTIGTKEEFLYRRLAIQAARRRTQVGATYSRSGKGKKRKLKAVDKYHKTESNYVAHRIHVYSRKLIDFCIKHQAGTLILMNQEDKVGIAKEEEFVLRNWSYYELMTKIKYKAEKAGIELIIG
notes: Untagged dCas12f, co-expressed in E. coli with its gRNA from the Ata plasmid in which the FLAG tag sits on RpoE or on HTH; also called Ata dCas12f; AtadCas12f

Assay [1] has as its target B2. Put plainly: ChIP-seq (anti-FLAG) of N-terminally 3xFLAG-tagged Ata RpoE in E. coli co-expressing Ata dCas12f and gRNAs retargeted to four genomic sites. How it is done:
After conjugating, the antibody-magnetic beads were added to the sonication supernatant and incubated at 4° C. for 12-16 h. Then, the magnetic beads were washed and immunoprecipitated protein bound to crosslinked DNA was eluted. Reverse-crosslinking was performed at 65° C. overnight. Samples were treated with RNase A (Thermo Fisher Scientific) and proteinase K (Thermo Fisher Scientific) and purified using QIAquick spin columns (QIAGEN). ChIP-sequencing libraries were generated using the NEBNext Ultra II DNA Library Prep Kit for Illumina (NEB). Size selection (˜450 bp fragment size) was performed using AMPure XP Beads (Beckman Coulter) and samples were sequenced using the Illumina NextSeq 500 platform in paired-end mode with 75 cycles per end. Sequencing reads were mapped to the E. coli K-12 genome (GenBank NC_000913.3) using bowtie2 and normalized using deepTools bamCoverage and visualized in IGV using counts per million (CPM). […]
Re-programmability of gRNAs for RNA-guided DNA-targeting of dCas12f and RpoE To test whether the gRNA and TAM were correctly determined by RIP-seq and ChIP-seq, new guide sequences were cloned for one representative system (here, Ata), targeting 4 different DNA sites tiled across the E. coli K-12 genome. […]

The target in assay [2] is B1. Put plainly: summary of the ChIP-seq and ChIP-qPCR data on the Ata system in E. coli.

Regarding B1, the binding result in assay [1] was “binds”. For the molecule B2, the binding result in assay [2] is “binds”.

Values taken from patent publication US20260152767A1 (TRUSTEES OF COLUMBIA UNIVERSITY IN THE CITY OF NEW YORK, published 2026).
